Laboratory results taken from the supplement of paper PMC9732359.
± gives the uncertainty stated by the source.

Assay: protein stability index of a GFP-peptide fusion (yeast GPS) (PSI 1-4); higher = more stable; sorted into four equal gates, so the index is relative within each strain
Method in brief: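 Each library plasmid carries Cherry plus GFP with a tiled 17-residue yeast protein peptide fused downstream, and the pooled library was carried in yeast. Mid-log cultures in leucine-free medium were sorted into four equal gates by GFP/Cherry ratio. Reads from Illumina sequencing of PCR-amplified plasmids from each gate were assigned to strains by barcodes. Per peptide, the protein stability index was computed as the summed products of gate read frequency and gate number.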

Sequence | protein stability index (doa10∆) | protein stability index (pdr5∆) | protein stability index (san1∆) | protein stability index (ubr1∆)
LSSELDSNKTLLHNHLK [SMC2] | 3.21 ± 0.059 | 3.26 ± 0.058 | 3.17 ± 0.048 | 3.2 ± 0.039
VKWQYDPNNPVDFDGLD [SNF12] | 2.74 ± 0.062 | 3.02 ± 0.053 | 2.25 ± 0.07 | 2.87 ± 0.03
GIGGDHAKFSPVSTASY [RPC40] | 2.59 ± 0.079 | 2.9 ± 0.12 | 2.28 ± 0.098 | 2.9 ± 0.062
DLLNAASIESADILCPL [IRR1] | 3.05 ± 0.2 | 2.24 ± 0.13 | 2.92 ± 0.12 | 2.79 ± 0.058
VDEEDENGTHNDEVNED [YCG1] | 3.46 ± 0.09 | 3.32 ± 0.17 | 3.55 ± 0.11 | 3.51 ± 0.077
QIDYKLESFQAVYNKLT [RPS7A] | 2.26 ± 0.043 | 2.4 ± 0.051 | 2.41 ± 0.063 | 2.85 ± 0.037
IEAIDEYNKPNSEKFVF [ISW2] | 2.6 ± 0.1 | 2.76 ± 0.075 | 3.01 ± 0.092 | 3.15 ± 0.075
PTESYLQYIIHDTLNNE [BRR2] | 2.22 ± 0.058 | 2.43 ± 0.07 | 2.37 ± 0.097 | 2.26 ± 0.065
QETCDKLRARLVEYGFD [SMC2] | 2.17 ± 0.14 | 2.52 ± 0.093 | 1.96 ± 0.089 | 1.57 ± 0.034
AHEIIKREEKAMTIYWD [CDC53] | 2.03 ± 0.087 | 2.18 ± 0.064 | – | 2.2 ± 0.05
IISSNENALIELKNELA [YIL149C/MLP2] | 2.53 ± 0.15 | 2.93 ± 0.077 | 2.71 ± 0.14 | 3.07 ± 0.12
MNHDPFSWGRPADSTYG [PRE4] | 3.05 ± 0.086 | 3.28 ± 0.087 | 3.15 ± 0.057 | 3.22 ± 0.052
NSAARNIQHLLYGKRFF [PRE7] | 2.13 ± 0.08 | 2.72 ± 0.084 | 2.12 ± 0.1 | 2.45 ± 0.076
YLNSRIIPTTLEEQQQL [YML103C/NUP188] | 1.97 ± 0.039 | 2.04 ± 0.042 | 1.82 ± 0.071 | 2.13 ± 0.052
GSTLNVSQMVAVVGQQI [RPO31] | 3.15 ± 0.14 | 2.94 ± 0.1 | 2.84 ± 0.16 | 2.82 ± 0.15
IYSSDAQGDPNLEPLIA [NUT1] | 3.36 ± 0.14 | 3.12 ± 0.096 | 3.04 ± 0.065 | 3.35 ± 0.1
GVLYQGNIQISEYNFLE [DIS3] | – | 3.05 ± 0.16 | 2.6 ± 0.18 | 2.96 ± 0.28
VKQIAPAELEGLLDLER [FAS2] | 3.11 ± 0.3 | – | – | –
DDEDDEHNPTIVGGLYY [AAR2] | 3.22 ± 0.12 | 3.14 ± 0.079 | 3.17 ± 0.064 | 3.4 ± 0.1
TNQKDTNDHVDKRTKID [ISW2] | 2.77 ± 0.069 | 3.05 ± 0.07 | 2.81 ± 0.059 | 2.72 ± 0.044
ITTFVKRSTVPLNDGFV [YML103C/NUP188] | 2.37 ± 0.066 | 2.32 ± 0.093 | 1.91 ± 0.11 | 2.35 ± 0.053
NITKNLKTFNGSLALLK [POP4] | – | 3.19 ± 0.15 | 2.93 ± 0.082 | 3.13 ± 0.1
VANVKDLETLTMHTKTY [RPL32] | 3.08 ± 0.13 | 3.01 ± 0.11 | 2.98 ± 0.075 | 2.95 ± 0.077
STSLGIPDFRSSEGFYS [SIR2] | 1.85 ± 0.27 | 1.62 ± 0.089 | – | 3.36 ± 0.14
NGQSLSPVRSDSADVPA [YMR153W/NUP53] | 3.06 ± 0.081 | 3.15 ± 0.081 | 3.09 ± 0.11 | 2.91 ± 0.05
TEYFENKQSVSNLSPDL [DSN1] | 3.48 ± 0.13 | 3.4 ± 0.1 | 3.34 ± 0.089 | 3.58 ± 0.058
FSFGKSDAAKEPPGSNT [YOR098C/NUP1] | – | 3.58 ± 0.16 | 2.84 ± 0.13 | 2.68 ± 0.2
